This series deals with MS2 coat protein. The series is described as follows: apparent KD of MS2 coat protein; designed switch direction (-1 OFF switch, 1 ON switch): -1; higher = weaker reporter binding. The gist of the method:
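Designed RNA switches with common flanks were transcribed on Illumina chips by stalled E. coli RNA polymerase and titrated with SNAP-549-labelled MS2 coat protein, from 0.7 or 1.5 nM doubling to 3 µM, in Tris-HCl pH 7.5 buffer with KCl, MgCl2, BSA, DTT, tRNA and Tween-20. Steps lasted 0.8–1.5 h (lowest) to 10–20 min (highest). Titrations ran without input, with 200 uM small-molecule ligand, or with an oligonucleotide input. Normalised cluster fluorescence was curve-fitted, and apparent KD is the per-design median over clusters.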

Setting [1] is: Eterna round: R95, input ligand: microRNA oligo, concentration not stated.
Setting [2] is: Eterna round: R95, input ligand: FMN 200 uM.
Where [3] appears, read: Eterna round: R95, input ligand: none.
Where [4] appears, read: input ligand: microRNA oligo, concentration not stated.

For the sequence “GUGUAGGGAGGAUAUACAUGAGGAUCACCCAUGUGAAUAAGAUAGAAUAAGAUAAAGUGUAGAAGGUCUAGUGU [Excluse me!!! 12 - Jieux - Exclusion 3] (puzzle: Exclusion 3)”, the “apparent KD of MS2 coat protein” value under setting [1] came out at 52.7 nM.

With “GUGUAGGUAGGAUAUACAUGAGGAUCACCCAUGUGAAUAAGAUAGAAUAAGAUAAAGUGUAGAAGGGCUAGUGU [Excluse me!!! 13 - Jieux - Exclusion 3] (puzzle: Exclusion 3)”, the “apparent KD of MS2 coat protein” value under setting [1] was 34.5 nM.

“GUGUGCUGAGGAUAUACAUAGGAAUAGAAUAGAAUAGAAUGACAUGAGGAUCACCCAUGUAGAAGGCAGAGUGU [Excluse me!! 13 - Jieux - Exclusion 2] (puzzle: Exclusion 2)”: the “apparent KD of MS2 coat protein” value is, setting by setting: under setting [2], 39.6 nM; under setting [1], 21.4 nM; under setting [3], 24.8 nM.

In the case of “GUGUUGCGAGGAUAUAUAAGGGUAUGUUCUUGAGGUAUGGAACAUGAGGAUCACCCAUGUAGAAGGUGCAUAAC [JR_Ex2_Sub045] (Eterna round: R97, puzzle: Exclusion 2)”, the “apparent KD of MS2 coat protein” value is, setting by setting: (input ligand: FMN 200 uM) 507 nM; (input ligand: none) 247 nM.

For the sequence “GUGUUGUAUGUAGGAUAUGCAUACUGUUAGUAUGCAGAAGGACAUGAGGAUCACCCAUGUAUAUUAUUAUUAUAUAUCAUACAU [MOD of Hoglahoo's Title] (Eterna round: R96, puzzle: Exclusion NG 1)”, the “apparent KD of MS2 coat protein” value under setting [4] amounted to 15.2 nM.

With “GUUAACGUAGGAUAUUAGUACAUGCACAUGAGGAUCACCCAUGUUUAGUGGGUCUAGGAAUAAGAAGGGCGAAGAA [EX5 #23] (Eterna round: R97, puzzle: Exclusion 5)”, the “apparent KD of MS2 coat protein” value is, setting by setting: (input ligand: FMN 200 uM) 170 nM; (input ligand: none) 309 nM.

As for “GUUAUGUAAGGAUAUAUGAGUCACGGUGAUACACCGUGAAGAUAGAAGGUACAUGAGGAUCACCCAUGUAAGGC [Mod of Anonveat 10 - Jieux - Exclusion 4] (Eterna round: R97, puzzle: Exclusion 4)”, the “apparent KD of MS2 coat protein” value reads like this: (input ligand: FMN 200 uM) 32.2 nM; (input ligand: none) 25.4 nM.

As for “GUUAUGUCAGGAUAUGCUAAUGAUGAAUGAUCAGACAUAAUGUAGAAGGGACAUGAGGAUCACCCAUGUAAUAU [EX4 #6] (Eterna round: R97, puzzle: Exclusion 4)”, the “apparent KD of MS2 coat protein” value reads like this: (input ligand: FMN 200 uM) 29.4 nM; (input ligand: none) 23.3 nM.

For the sequence “GUUAUGUCAGGAUAUGCUAAUGAUGAAUGAUCAGACAUGAUGUAGAAGGGACAUGAGGAUCACCCAUGUAAUAU [EX4 #7] (Eterna round: R97, puzzle: Exclusion 4)”, the “apparent KD of MS2 coat protein” value is 32.3 nM (input ligand: FMN 200 uM) and 25 nM (input ligand: none).

Take “GUUAUUUAUGUAGGAUAUGCAAGGCGAACCUAAGCAGAAGGACAUGAGGAUCACCCAUGUAUUGCGGUCUGCGUUCAGAUCGCU [salish99_ExNG1_r4_013] (Eterna round: R96, puzzle: Exclusion NG 1)”: the “apparent KD of MS2 coat protein” value runs as follows: (input ligand: FMN 200 uM) 86.2 nM; under setting [4], 15 nM; (input ligand: none) 22 nM.

Consider “GUUCAGUCAGGAUAUCAAUCCGCCUGUGAUACGCAGGCGGCUGAGAAGGGACAUGAGGAUCACCCAUGUAAAGA [jl-ex4-4.21 ViennaUCT mod] (Eterna round: R97, puzzle: Exclusion 4)”, for which the “apparent KD of MS2 coat protein” value came out at 51.1 nM (input ligand: FMN 200 uM) and 37.1 nM (input ligand: none).

For “GUUCCGCGAGGAUAUACAGACGGGUCCAAAACGUGUCUCGGACUUGAGGAUCACCCAAGUAGAAGGCGUUUCAG [salish99_ex2_r4_622] (Eterna round: R97, puzzle: Exclusion 2)”, the “apparent KD of MS2 coat protein” value amounted to 20.4 nM (input ligand: FMN 200 uM) and 22.1 nM (input ligand: none).

Turning to “GUUCGUGAGAAGGAUAUGAUUCUGGAACAAGAGUUAGAAGGUUUCACAUGAGGAUCACCCAUGUCUAGAAAACC [Eternabot (Original) Solution 32] (Eterna round: R97, puzzle: Exclusion 6)”, the “apparent KD of MS2 coat protein” value came to 12.2 nM (input ligand: FMN 200 uM) and 10.7 nM (input ligand: none).

In the case of “GUUGACUGAUGAGGAUAUUCAUAAGAAUGGGCCUUGGUUUUACAUGAGGAUCACCCAUGUUGACAGAAGAAGGCAUCAGUCUGA [Eternabot solution 28] (Eterna round: R96, puzzle: Exclusion NG 2)”, the “apparent KD of MS2 coat protein” value (input ligand: FMN 200 uM) is 659 nM, the “apparent KD of MS2 coat protein” value under setting [4] was 120 nM and the “apparent KD of MS2 coat protein” value (input ligand: none) turned out to be 109 nM.

For the sequence “GUUGUUUAUGUAGGAUAUGCCUGGCGUGCCUUUGCAGAAGGACAUGAGGAUCACCCAUGUAUUGCGGUCUGCGUUCAGAUCGCU [salish99_ExNG1_r4_022] (Eterna round: R96, puzzle: Exclusion NG 1)”, the “apparent KD of MS2 coat protein” value by setting is: (input ligand: FMN 200 uM) 45.6 nM; under setting [4], 26.2 nM; (input ligand: none) 34.8 nM.

“GUUUAGUGAGGAUAUGUGGCUUCGAUCGUGCGAAGGAGGCUACAGAAGGCACAUGAGGAUCACCCAUGUUCCUC [salish99_ex4_r4_302] (Eterna round: R97, puzzle: Exclusion 4)”: the “apparent KD of MS2 coat protein” value runs as follows: (input ligand: FMN 200 uM) 401 nM; (input ligand: none) 37.1 nM.

Regarding “GUUUCACAUGAGGAUCACCCAUGUGAGGAUAUAAAUUUGUUAACCGUAGUUAAUAGAUUUAGAAGGCGCGUGAU [JR_Exc1_Sub001] (Eterna round: R97, puzzle: Exclusion 1)”, the “apparent KD of MS2 coat protein” value (input ligand: FMN 200 uM) was 68.2 nM and the “apparent KD of MS2 coat protein” value (input ligand: none) was determined as 63.1 nM.

Take “GUUUGCACGCUGCGGUCCUACAUGAGGAUCACCCAUGUGGUCUGGUGGCGUGGGUCGCCGGACUUGGCUCGUCUUGA [salish99_S_TOV1_R5_038] (Eterna round: R97, puzzle: Sensor, turn-off variant 1)”: the “apparent KD of MS2 coat protein” value amounted to 17.2 nM (input ligand: FMN 200 uM) and 16.9 nM (input ligand: none).

On to “GUUUGCAGACGGAGAUCCUACAUGAGGAUCACCCAUGUCUCACUAGCUUUUUGCUCGUCUUAUCCUCCUCUGUUCUC [Elimod 27 - Jieux - Sensor, turn-off variant 1] (Eterna round: R97, puzzle: Sensor, turn-off variant 1)”, for which the “apparent KD of MS2 coat protein” value (input ligand: FMN 200 uM) was 260 nM and the “apparent KD of MS2 coat protein” value (input ligand: none) is 303 nM.

“GUUUUCAGACGGAGAUCCGACAUGAGGAUCACCCAUGUCUCACAAGCUUUUUGCUCGUCUUAUACUCCUCUGUUCUC [Elimod 43 - Jieux - Sensor, turn-off variant 1] (Eterna round: R97, puzzle: Sensor, turn-off variant 1)”: the “apparent KD of MS2 coat protein” value is, setting by setting: (input ligand: FMN 200 uM) 16.9 nM; (input ligand: none) 15.9 nM.

For “GUUUUCAGACGGAGAUCCUACAUGAGGAUCACCCAUGUCUCUCUUGUUCCUUGCUCGUCUUUUCCUCCUCUGUUCUC [Elimod 33 - Jieux - Sensor, turn-off variant 1] (Eterna round: R97, puzzle: Sensor, turn-off variant 1)”, the “apparent KD of MS2 coat protein” value was 657 nM (input ligand: FMN 200 uM) and 847 nM (input ligand: none).

For the sequence “UAAAAGAAGGUCAGGAUAUGUAGUGAGCAAUCAGGACAGAAGGGACAUGAGGAUCACCCAUGUAACAGGGUAAA [Eninares] (puzzle: Brourd's mod of Exclusion 4)”, the “apparent KD of MS2 coat protein” value is, setting by setting: under setting [2], 104 nM; under setting [1], 44.6 nM; under setting [3], 43.1 nM.

Regarding “UAAAAGCUAGGAUAUACAUGAGGAUCACCCAUGUCAACCACACGGAUGCGCCGAGCAUGUAGAAGGAGCACCGG [Soora] (puzzle: Exclusion 3)”, the “apparent KD of MS2 coat protein” value under setting [1] is 17 nM.

Regarding “UAAAAGUCAGGAUAUACAUGAGGAUCACCCAUGUAAAAUUUUAAUUUAAUUUUAAGGUGUAGAAGGGACAAUUU [Ex3 #1] (Eterna round: R97, puzzle: Exclusion 3)”, the “apparent KD of MS2 coat protein” value turned out to be 32.5 nM (input ligand: FMN 200 uM) and 34.9 nM (input ligand: none).

For “UAAACUUGCUUCCGAUCCUACAUGAGGAUCACCCAUGUGCUCGUCUUGUAUCGUACUGUGACGUUAGUCACGGUACG [mod my first] (Eterna round: R97, puzzle: Sensor, turn-off variant 1)”, the “apparent KD of MS2 coat protein” value came to 477 nM (input ligand: FMN 200 uM) and 464 nM (input ligand: none).

Turning to “UAACCCGCGCGAGGAUAUCACAUGAGGAUCACCCAUGUGGCACUCCGUCACCGGGCAGUCCCGAGUGAGAAGGUGCAGGCGGGA [Bireisen] (Eterna round: R96, puzzle: Exclusion NG 2)”, the “apparent KD of MS2 coat protein” value runs as follows: (input ligand: FMN 200 uM) 62.8 nM; under setting [4], 22.1 nM; (input ligand: none) 26 nM.

Take “UAACGGGUUUCUUCGUUUACAACAUGAGGAUCACCCAUGUUUGAGGAUAUCCACUAAGCUCUUCAGGAGAAGGCAAACAUAAUG [Teanarxe] (Eterna round: R96, puzzle: Exclusion NG 3)”: the “apparent KD of MS2 coat protein” value by setting is: (input ligand: FMN 200 uM) 20.6 nM; under setting [4], 12.2 nM; (input ligand: none) 15.4 nM.

For the sequence “UAACUACAUGAGGAUCACCCAUGUCAGGAUAUGCCGUUAAAUUAACAUCAACAUACGGGUAGAAGGGACAACGU [1st #3] (Eterna round: R97, puzzle: Exclusion 1)”, the “apparent KD of MS2 coat protein” value (input ligand: FMN 200 uM) stood at 31.5 nM and the “apparent KD of MS2 coat protein” value (input ligand: none) turned out to be 29.8 nM.

As for “UAAUACAAGCAAAGAUCCUACAUGAGGAUCACCCAUGUGUUCGUCUUAUAAAGUACUAUCACGAAAGUGAUAGUACA [Mat - Sensor v3 - turn-off var 1 - Eli Mod - D79] (puzzle: Sensor v3, turn-off variant 1)”, the “apparent KD of MS2 coat protein” value under setting [2] stood at 81.6 nM, the “apparent KD of MS2 coat protein” value under setting [1] is 12.3 nM and the “apparent KD of MS2 coat protein” value under setting [3] came out at 110 nM.

Regarding “UAAUGCAAGCAAAGAUUCUACAUGAGGAUCACCCAUGUGCUCGUCUUAUAAAGUACUAUCACGAAAGUGAUAGUACA [Mat - Sensor v3 - turn-off var 1 - Eli Mod - D96] (puzzle: Sensor v3, turn-off variant 1)”, the “apparent KD of MS2 coat protein” value worked out at 25.7 nM under setting [2], 75.7 nM under setting [1] and 27.1 nM under setting [3].
